Laboratory results published in PMC12375970, “Probing the extent of importin‐α targeting of the TAF8 NLS by eliminating its cationic net‐charge” (Protein Science : A Publication of the Protein Society, 2025).
Read-outs that look alike come from different tables or passages of the source. One block for each substance: values may come before it.

What was measured:
[1] = biological target: murine importin-α isoform 2 (mImpα2) lacking the importin-β-binding (IBB) domain (mouse) (UniProt P52293); assay: MST; Monolith NT.115; RED-NHS-labelled mImpα2 at 60 nM titrated against a serial 1:1 dilution (250 µM-7.6 nM) of NLS peptide with 0.5% Tween-20; 20 mM Tris-HCl, 127 mM NaCl, pH 8.0; three repeats, mean ± SD; fitted with one-binding-site, two-binding-site and Hill models; apparent affinity
[2] = biological target: importin-alpha (Homo sapiens) (UniProt P52292); assay: ITC; conditions: cited from earlier work
[3] = biological target: importin-alpha (Homo sapiens) (UniProt P52292); conditions: cited from earlier work
[4] = biological target: importin-beta (UniProt Q14974); conditions: cited from earlier work
Chain of importin-beta (Q14974 whole entry, the tested form may be a part): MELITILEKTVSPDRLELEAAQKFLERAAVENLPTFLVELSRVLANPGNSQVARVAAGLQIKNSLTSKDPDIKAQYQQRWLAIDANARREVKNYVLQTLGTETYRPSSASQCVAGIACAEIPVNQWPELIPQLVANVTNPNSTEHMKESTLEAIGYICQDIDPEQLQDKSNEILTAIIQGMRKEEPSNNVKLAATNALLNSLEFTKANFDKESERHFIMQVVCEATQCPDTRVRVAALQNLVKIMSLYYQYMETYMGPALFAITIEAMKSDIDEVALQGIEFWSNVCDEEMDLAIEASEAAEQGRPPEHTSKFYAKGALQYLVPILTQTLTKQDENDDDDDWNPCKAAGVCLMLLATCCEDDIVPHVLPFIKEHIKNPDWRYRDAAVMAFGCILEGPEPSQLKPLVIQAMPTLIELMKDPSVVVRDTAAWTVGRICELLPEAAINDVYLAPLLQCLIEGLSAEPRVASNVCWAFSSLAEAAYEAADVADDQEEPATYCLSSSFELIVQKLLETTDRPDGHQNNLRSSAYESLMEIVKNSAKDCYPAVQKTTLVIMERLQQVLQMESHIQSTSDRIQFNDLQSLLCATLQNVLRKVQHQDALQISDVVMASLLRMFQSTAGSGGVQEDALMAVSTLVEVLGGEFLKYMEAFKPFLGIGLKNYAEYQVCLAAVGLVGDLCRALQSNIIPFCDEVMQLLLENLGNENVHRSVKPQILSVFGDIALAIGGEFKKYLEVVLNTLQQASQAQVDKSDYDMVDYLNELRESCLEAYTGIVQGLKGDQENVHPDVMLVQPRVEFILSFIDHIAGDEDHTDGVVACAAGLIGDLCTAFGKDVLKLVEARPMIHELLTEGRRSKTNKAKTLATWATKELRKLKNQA

[5] = biological target: mouse importin‐α paralog 2 (mImpα2) lacking the importin‐β‐binding (IBB) domain, residues 70–529 (mouse) (UniProt P52293); assay: MST; Monolith NT.115; RED‐NHS‐labelled mImpα2 at 60 nM titrated against NLS peptide 250 μM–7.6 nM; 20 mM Tris–HCl, 127 mM NaCl, pH 8.0, 0.5% Tween‐20; one‐binding site and two‐binding site model fits; apparent

- Kd [1]: 1.21 µM
Substance: TAF8 NLS peptide (…, residues 297-305)

Substance: TAF8 NLS 297-310 (from UniProt Q7Z7C8)
- Kd [2]: 10.4 µM

Substance: importin-alpha IBB domain IBB (from UniProt P52292)
- Kd [3]: 14 µM
- Kd [4]: 0.01 µM

- KD1 (site 1, two‐binding site model) [5]: 1 µM
- KD2 (site 2, two‐binding site model) [5]: 1 µM
Substance: TAF8 NLS peptide (TAF8 residues 297–305, …)
